Laboratory results as given in patent US20240197839A1, “Recombinant Human Acid Alpha-Glucosidase and Uses Thereof” (Amicus Therapeutics, Inc., priority 2021, published 2024).
Marks after values point to notes of the source that are not given here. Values belong to the compound of their own block, whether it stands above or below them.

Experiments:
[1] = thermostability assay using SYPRO Orange; format: physicochemical
Method: The stability of ATB200 in acidic or neutral pH buffers was evaluated in a thermostability assay using SYPRO Orange, as the fluorescence of the dye increases when proteins denature. […] As summarized in Table 6, the addition of AT2221 increased the melting temperature (Tm) of ATB200 by nearly 10° C.

[2] = system: normal and Pompe fibroblast cell lines; experiment: cellular uptake of rhGAA in fibroblasts (internalized GAA by 4MU-α-Glucoside hydrolysis); format: cell-based
Method: The relative cellular uptake of ATB200 and LUMIZYME® rhGAA were compared using normal and Pompe fibroblast cell lines. Comparisons involved 5-100 nM of ATB200 according to the disclosure with 10-500 nM conventional rhGAA product LUMIZYME®. After 16-hr incubation, external rhGAA was inactivated with TRIS base and cells were washed 3-times with PBS prior to harvest. Internalized GAA measured by 4MU-α-Glucoside hydrolysis and was graphed relative to total cellular protein and the results appear in FIGS. 11A-11C.

[3] = system: Gaa KO mice; experiment: single fiber analysis (LAMP1/LC3 co-immunofluorescence, white gastrocnemius); format: in vivo
Source text: FIG. 17 depicts co-immunofluorescent staining of LAMP1 (green) (see for example, “B”) and LC3 (red) (see, for example, “A”) in single fibers isolated from the white gastrocnemius of Gaa KO mice treated with a vehicle, alglucosidase alfa, or ATB200. “C” depicts clearance of autophagic debris and absence of enlarged lysosome. A minimum of 30 fibers were examined from each animal.
As a result, a significant portion of muscle fibers analyzed (36-60%) from ATB200-treated mice appeared normal or near-normal.

[4] = molecular target: T1, CIMPR (Homo sapiens, UniProt P11717); experiment: CIMPR plate binding assay
T1 sequence (P11717 41-2491, species assumed): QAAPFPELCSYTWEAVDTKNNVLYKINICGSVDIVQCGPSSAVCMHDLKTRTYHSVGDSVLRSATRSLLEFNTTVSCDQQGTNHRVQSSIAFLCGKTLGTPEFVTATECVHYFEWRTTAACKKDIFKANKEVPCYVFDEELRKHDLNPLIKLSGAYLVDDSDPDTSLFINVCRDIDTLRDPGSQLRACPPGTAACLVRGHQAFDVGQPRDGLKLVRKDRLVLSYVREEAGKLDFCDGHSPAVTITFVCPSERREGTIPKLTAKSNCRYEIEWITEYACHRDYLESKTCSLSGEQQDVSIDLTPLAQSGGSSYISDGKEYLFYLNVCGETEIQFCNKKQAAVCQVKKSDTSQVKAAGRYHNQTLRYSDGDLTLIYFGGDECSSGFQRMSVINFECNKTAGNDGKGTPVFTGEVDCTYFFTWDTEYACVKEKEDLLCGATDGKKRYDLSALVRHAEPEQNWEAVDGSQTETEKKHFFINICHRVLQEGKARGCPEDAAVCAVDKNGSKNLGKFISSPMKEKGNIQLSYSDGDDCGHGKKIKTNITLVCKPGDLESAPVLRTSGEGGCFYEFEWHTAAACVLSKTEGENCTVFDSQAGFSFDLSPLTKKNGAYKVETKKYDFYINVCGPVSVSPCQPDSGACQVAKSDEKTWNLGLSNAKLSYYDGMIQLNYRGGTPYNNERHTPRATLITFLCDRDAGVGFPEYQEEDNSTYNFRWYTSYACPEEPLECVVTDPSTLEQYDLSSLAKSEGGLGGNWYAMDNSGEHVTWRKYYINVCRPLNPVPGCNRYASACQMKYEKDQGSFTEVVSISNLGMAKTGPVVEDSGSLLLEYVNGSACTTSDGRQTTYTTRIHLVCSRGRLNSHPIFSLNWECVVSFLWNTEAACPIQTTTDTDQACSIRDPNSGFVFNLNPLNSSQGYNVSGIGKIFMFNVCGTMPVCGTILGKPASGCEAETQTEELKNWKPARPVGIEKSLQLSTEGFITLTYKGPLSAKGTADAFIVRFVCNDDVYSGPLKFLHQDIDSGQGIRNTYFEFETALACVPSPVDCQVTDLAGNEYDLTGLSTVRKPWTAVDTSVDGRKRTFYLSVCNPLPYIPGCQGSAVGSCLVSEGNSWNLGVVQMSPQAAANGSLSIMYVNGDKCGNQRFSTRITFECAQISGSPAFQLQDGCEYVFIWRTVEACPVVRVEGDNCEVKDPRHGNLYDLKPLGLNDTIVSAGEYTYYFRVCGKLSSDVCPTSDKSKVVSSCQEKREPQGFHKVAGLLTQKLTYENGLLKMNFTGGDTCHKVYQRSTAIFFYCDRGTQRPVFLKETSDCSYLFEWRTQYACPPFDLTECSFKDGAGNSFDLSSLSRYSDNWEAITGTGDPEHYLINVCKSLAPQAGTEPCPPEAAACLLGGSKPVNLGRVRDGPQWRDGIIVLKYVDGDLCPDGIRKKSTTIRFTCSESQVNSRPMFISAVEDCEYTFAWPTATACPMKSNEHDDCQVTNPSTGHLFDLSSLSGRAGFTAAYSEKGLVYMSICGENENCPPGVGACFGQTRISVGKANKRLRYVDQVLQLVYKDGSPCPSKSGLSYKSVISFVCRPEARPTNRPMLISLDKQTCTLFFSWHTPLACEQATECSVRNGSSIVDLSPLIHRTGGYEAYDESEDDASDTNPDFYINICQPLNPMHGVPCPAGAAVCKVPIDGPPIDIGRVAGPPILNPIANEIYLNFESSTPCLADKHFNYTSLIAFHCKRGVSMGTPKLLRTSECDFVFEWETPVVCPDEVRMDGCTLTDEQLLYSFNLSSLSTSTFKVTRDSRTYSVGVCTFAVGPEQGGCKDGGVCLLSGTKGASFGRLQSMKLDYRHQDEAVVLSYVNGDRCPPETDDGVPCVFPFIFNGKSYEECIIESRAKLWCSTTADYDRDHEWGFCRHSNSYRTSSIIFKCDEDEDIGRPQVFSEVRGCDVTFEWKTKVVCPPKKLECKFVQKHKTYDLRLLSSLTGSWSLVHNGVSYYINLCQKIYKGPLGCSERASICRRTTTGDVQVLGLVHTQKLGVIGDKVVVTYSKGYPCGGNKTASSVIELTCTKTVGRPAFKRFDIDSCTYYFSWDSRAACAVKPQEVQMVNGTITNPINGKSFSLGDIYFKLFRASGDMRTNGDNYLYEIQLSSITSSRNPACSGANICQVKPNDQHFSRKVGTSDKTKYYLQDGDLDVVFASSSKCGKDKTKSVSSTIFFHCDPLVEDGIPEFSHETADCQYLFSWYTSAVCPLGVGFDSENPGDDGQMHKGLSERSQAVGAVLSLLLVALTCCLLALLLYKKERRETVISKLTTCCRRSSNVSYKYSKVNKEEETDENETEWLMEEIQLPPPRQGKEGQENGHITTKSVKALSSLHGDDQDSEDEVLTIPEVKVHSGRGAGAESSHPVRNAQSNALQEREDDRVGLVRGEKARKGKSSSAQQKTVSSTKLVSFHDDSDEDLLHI
Method: In addition to having a greater percentage of rhGAA that can bind to the CIMPR, it is important to understand the quality of that interaction. LUMIZYME® and ATB200 receptor binding was determined using a CIMPR plate binding assay. Briefly, CIMPR-coated plates were used to capture GAA. Varying concentrations of rhGAA were applied to the immobilized receptor and unbound rhGAA was washed off. The amount of remaining rhGAA was determined by GAA activity. […] For LUMIZYME®, there is on average only 10% of molecules having a bis-phosphorylated N-glycan. In contrast, on average every rhGAA molecule in ATB200 has at least one bis-phosphorylated N-glycan.
N-glycan analysis via MALDI-TOF mass spectrometry confirmed that on average each ATB200 molecule contains at least one natural bis-M6P N-glycan structure.

[5] = molecular target: T1, CIMPR; experiment: CIMPR affinity chromatography (bound vs unbound rhGAA by GAA activity); format: binding; settings: CIMPR affinity column, fraction of total enzyme by GAA activity
Source text: Multiple batches of the rhGAA according to the disclosure were produced in shake flasks and in perfusion bioreactors using CHO cell line GA-ATB200, the product of which is referred to as “ATB200.” Weak anion exchange (“WAX”) liquid chromatography was used to fractionate ATB200 rhGAA according to terminal phosphate and sialic acid. Elution profiles were generated by eluting the ERT with increasing amount of salt. The profiles were monitored by UV (A280 nm).
To evaluate the ability of the conventional rhGAAs in MYOZYME® and LUMIZYME® to interact with the CIMPR, the two conventional rhGAA preparations were injected onto a CIMPR affinity column (which binds rhGAA having M6P groups) and the flow through collected. The bound material was eluted with a free M6 gradient. Fractions were collected in 96-well plate and GAA activity assayed by 4MU-α-glucosidase substrate. The relative amounts of unbound (flow through) and bound (M6P eluted) rhGAA were determined based on GAA activity and reported as the fraction of total enzyme. […] Indeed, only 27% of the rhGAA in MYOZYME® and 22% of the rhGAA in LUMIZYME® contained M6P that can be productive to target it to the CIMPR on muscle cells.

increase of the melting temperature (Tm) of ATB200 by addition of AT2221 ([1]; pH 7.4): ~10 °C
Compound: CCCCN1C[C@H](O)[C@@H](O)[C@H](O)[C@H]1CO [AT2221, (2R,3R,4R,5S)-1-butyl-2-(hydroxymethyl)piperidine-3,4,5-triol]
stabilization of ATB200 by AT2221 ([1]; pH 7.4, FIG. 12): stabilized ATB200 at pH 7.4 in a concentration-dependent manner

binding to CIMPR compared with LUMIZYME ([4]; CIMPR-coated plates, varying rhGAA concentrations (FIG. 10A)): significantly better | Kd ([4]; M6P receptor plate binding assays): 2 to 4 nM
Compound: ATB200: recombinant human acid α-glucosidase with a high content of N-glycans bearing mono-M6P and bis-M6P, produced from a GA-ATB200 CHO cell line
internalization into normal and Pompe fibroblast cells compared with LUMIZYME ([2]; 16-hr incubation, FIGS. 11A-11B): internalized to a greater degree | concentration that saturates cellular receptors ([2]; 16-hr incubation, normal and Pompe fibroblasts): about 20 nM | uptake efficiency constant (Kuptake) ([2]; extrapolated from uptake curves, FIG. 11C): 2-3 nm | Fibers with Autophagy Buildup ([3]; Gaa KO mice): 40-64%* | area / extent of autophagic buildup ([3]; single fibers, compared to Vehicle- or alglucosidase alfa-treated group): reduced to various degrees | Tm ([1]; pH 5.2): 67.3 °C | Tm ([1]; pH 7.4): 56.2 °C | Tm ([1]; pH 7.4 + 10 μM AT2221): 61.6 °C | Tm ([1]; pH 7.4 + 30 μM AT2221): 62.9 °C | Tm ([1]; pH 7.4 + 100 μM AT2221): 66.0 °C

rhGAA that did not bind to the CIMPR ([5]; flow through): 73% | rhGAA that binds to the CIMPR (M6P eluted) [5]: 27%
Compound: MYOZYME®: conventional rhGAA product containing alglucosidase alfa, marketed by Genzyme
lysosomes and autophagic buildup compared to vehicle-treated mice ([3]; single fibers, FIG. 17): did not show any significant difference
